Measurements taken from paper PMC9965349 (Viruses, 2023).
Read-outs that look alike come from different tables or passages of the source. Residues, ends and D or L forms follow the SMILES beside them.

T1: porcine epidemic diarrhea virus S protein (PEDV-S1) (porcine epidemic diarrhea virus)
T1 chain: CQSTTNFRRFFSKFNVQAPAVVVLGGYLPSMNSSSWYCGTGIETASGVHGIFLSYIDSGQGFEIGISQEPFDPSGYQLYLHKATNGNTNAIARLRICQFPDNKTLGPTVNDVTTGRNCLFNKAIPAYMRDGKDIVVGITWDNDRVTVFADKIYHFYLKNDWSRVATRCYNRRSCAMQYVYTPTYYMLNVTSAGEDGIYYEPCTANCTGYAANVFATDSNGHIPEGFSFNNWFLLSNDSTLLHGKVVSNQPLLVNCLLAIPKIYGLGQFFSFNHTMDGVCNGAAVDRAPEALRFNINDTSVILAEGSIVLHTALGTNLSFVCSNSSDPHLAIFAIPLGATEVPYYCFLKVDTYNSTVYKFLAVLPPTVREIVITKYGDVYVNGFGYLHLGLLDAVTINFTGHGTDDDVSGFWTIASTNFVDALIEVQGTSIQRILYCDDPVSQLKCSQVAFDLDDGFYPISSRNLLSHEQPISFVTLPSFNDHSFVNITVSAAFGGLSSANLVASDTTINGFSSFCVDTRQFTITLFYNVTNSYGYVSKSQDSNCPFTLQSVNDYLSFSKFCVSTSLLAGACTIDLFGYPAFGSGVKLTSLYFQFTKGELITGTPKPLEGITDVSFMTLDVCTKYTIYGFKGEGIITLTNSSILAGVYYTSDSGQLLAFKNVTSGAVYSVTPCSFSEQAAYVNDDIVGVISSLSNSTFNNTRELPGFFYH


Assays:
[1] = molecular target: PEDV S1 protein (Porcine epidemic diarrhea virus, UniProt Q91AV1); experiment: SPR kinetic measurement (Biacore X100, CM5 chip); assay type: binding
[2] = test system: Vero cells; experiment: Cytotoxicity assay (CCK-8); assay type: cell-based, African green monkey
[3] = molecular target: T1, porcine epidemic diarrhea virus S …; experiment: SPR; conditions: both partners purified
[4] = molecular target: T1, porcine epidemic diarrhea virus S …; experiment: ELISA; conditions: both partners purified
[5] = SPR, 1:1 binding fit, peptide 0.78125-25 μM, HBS-EP pH 7.4, 30 μL/min, 120 s association, 120 s dissociation

| Molecule | Kd [1] [nM] | Kd [3] [nM] | koff [3] [s⁻¹] | kon [3] [M⁻¹ s⁻¹] | P/N value [4] | also measured |
| --- | --- | --- | --- | --- | --- | --- |
| C[C@H](NC(=O)[C@H](CCC(=O)O)NC(=O)[C@H](CCCCN)NC(=O)[C@H](Cc1c[nH]c2ccccc12)NC(=O)[C@@H](N)Cc1ccccc1)C(=O)N[C@@H](CCCCN)C(=O)O [compound 110616] (H-FWKEAK-OH) | 772 |  |  |  |  |  |
| N=C(N)NCCC[C@H](NC(=O)[C@H](CCCCN)NC(=O)[C@H](CO)NC(=O)[C@H](CCCCN)NC(=O)[C@H](Cc1c[nH]c2ccccc12)NC(=O)[C@@H](N)Cc1ccccc1)C(=O)O [compound 110766] | 216 |  |  |  |  | Cell viability (CCK-8) ([2]; 0.78125-400 µM, 24 h at 37 °C, normalized to control without peptide): over 90%; Cytotoxicity (in words) ([2]; CCK-8): not toxic to vero cells |
| N=C(N)NCCC[C@H](NC(=O)[C@H](CC(N)=O)NC(=O)[C@H](Cc1ccccc1)NC(=O)[C@H](Cc1c[nH]cn1)NC(=O)[C@@H](N)Cc1c[nH]c2ccccc12)C(=O)N1CCC[C@H]1C(=O)O [compound 115042] (H-WHFNRP-OH) | 6520 |  |  |  |  |  |
| FWKQNKFLFWKQNKCL [compound 110490] |  |  |  |  |  | Ka [1, 5]: 5743 M⁻¹ s⁻¹; Kd [1, 5]: 0.03522 s⁻¹ |
| FWKSKR [peptide 110766] |  | 216 |  |  |  |  |
| WHFNRP [peptide 115042] |  | 6520 | 0.0225 | 3450 | > 67.9 |  |
| FWKEAK [peptide 110616] |  | 772 | 0.0236 | 30500 | > 67.9 |  |
| FWKQNKFLFWKQNKCL [peptide 110490] |  | 1500 | 0.0352 | 5740 | > 67.9 |  |
